Source: patent US20250066499A1 (SUNSHINE GUOJIAN PHARMACEUTICAL SHANGHAI, published 2025)
Residue numbers refer to the chain shown, from its start.

How the values were obtained:
CD73-CD-his = molecular target: T1, CD73-CD-his (human, UniProt P21589 337-549); assay: ELISA as in Example 3, antigen CD73-CD-his, antibody titrated, absorbance 450 nm
T1 construct: it fits residue S549 of P21589 (27+522)
T1 sequence: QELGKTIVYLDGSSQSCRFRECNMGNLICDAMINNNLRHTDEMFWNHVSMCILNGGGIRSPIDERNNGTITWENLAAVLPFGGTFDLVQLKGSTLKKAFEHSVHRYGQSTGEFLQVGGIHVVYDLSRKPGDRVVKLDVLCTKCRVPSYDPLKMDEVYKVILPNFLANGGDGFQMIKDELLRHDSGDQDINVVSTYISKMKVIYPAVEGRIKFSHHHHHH

CD73-ND-K180A = molecular target: T2, CD73-ND-K180A (human, UniProt P21589 27-317); assay: ELISA, high plateau value (OD 450 nm)
T2 construct: Alanine mutant of CD73-ND
T2 sequence: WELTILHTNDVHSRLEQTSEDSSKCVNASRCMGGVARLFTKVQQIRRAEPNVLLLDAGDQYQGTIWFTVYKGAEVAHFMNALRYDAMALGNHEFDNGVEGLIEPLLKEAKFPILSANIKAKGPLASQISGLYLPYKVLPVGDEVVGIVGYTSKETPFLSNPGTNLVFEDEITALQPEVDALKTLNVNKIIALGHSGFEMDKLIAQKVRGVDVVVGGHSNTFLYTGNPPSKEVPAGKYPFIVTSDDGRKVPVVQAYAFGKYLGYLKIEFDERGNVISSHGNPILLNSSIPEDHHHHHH
Description: (§1) The ELISA plates were coated with SA protein diluted to 1.5 μg/mL in coating buffer (50 mM carbonate coating buffer, pH 9.6) and incubated overnight at 4° C. The supernatant was discarded, and the plates were washed three times with PBST. Then, 5% skimmed milk powder prepared with PBS was added for blocking and the plates were incubated for 2 h at 37° C. After washing the plates once with PBST, CD73-biotin protein (prepared by biotinylating CD73-His protein according to the EZ-Link NHS-Biotin Reagent instructions) was diluted to 0.5 μg/mL and added at 100 μL/well for incubation at room temperature for 1 h. The plates were washed three times with PBST, and the prepared murine-derived monoclonal antibodies against human CD73 were serially diluted with 1% BSA buffer prepared with PBST and added to the ELISA plates at 100 μl/well. The plates were incubated at 37° C. for 1 h. After washing the plates three times with PBST, HRP-labeled goat anti-mouse IgG secondary antibody was added and the plates were incubated for 30 min at 37° C. After washing the plates three times with PBST, the residual droplets were patted dry on absorbent paper as much as possible. Then, 100 μl of TMB color developing solution was added to each well, and the plates were incubated in the dark at room temperature for 5 min for color development. Subsequently, 50 μl of 2M H₂SO₄ stop solution was added to each well to terminate the substrate reaction. The OD values were read at 450 nm using a multimode microplate reader to analyze the binding ability of the tested antibodies to the target antigen human CD73-His.
(§2) Referring to the experimental method in Example 3, the affinity of 48A11-HuV33 for various mutant proteins of CD73-ND was determined. The SA protein was diluted to 1 μg/mL for coating the ELISA plates, and the biotinylated CD73 protein (CD73-biotin) was used at a concentration of 0.1 μg/mL.

CD73-ND-his = molecular target: T3, CD73-ND-his (human, UniProt P21589 27-317); assay: ELISA, high plateau value (OD 450 nm)
T3 construct: Biotinylated and captured on streptavidin in the ELISA
T3 sequence: T2 sequence with A180K
Description: as §1, §2

CD73-ND-K182A = molecular target: T4, CD73-ND-K182A (human, UniProt P21589 27-317); assay: ELISA, high plateau value (OD 450 nm)
T4 construct: Alanine mutant of CD73-ND
T4 sequence: T2 sequence with A180K, K182A
Description: as §1, §2

CD73-ND-V144A = molecular target: T5, CD73-ND-V144A (human, UniProt P21589 27-317); assay: ELISA, high plateau value (OD 450 nm)
T5 construct: Alanine mutant of CD73-ND
T5 sequence: T2 sequence with V144A, A180K
Description: as §1, §2

CD73-ND-E143A = molecular target: T6, CD73-ND-E143A (human, UniProt P21589 27-317); assay: ELISA, high plateau value (OD 450 nm)
T6 construct: Alanine mutant of CD73-ND
T6 sequence: T2 sequence with E143A, A180K
Description: as §1, §2

B1: 48A11-HuV33 (antibody, human IgG4, V domains shown)
VH: QVQLVQSGAEVKKPGASVKVSCKASGYTFTSYWMHWVRQAPGQGLEWIGEINPSIGRTNYNEKFKSRVTLTRDTSTSTAYMELSSLRSEDTAVYYCARRVYGTMDYWGQGTLVTVSS
VL: DIQMTQSPSSLSASVGDRVTITCKASQDINSYLSWFQQKPGKSPKLLIYRANIWVDGVPSRFSGSGSGQDYTFTISSLQPEDIATYYCLQYDELYTFGQGTKVEIK
notes: Humanized
binding result (CD73-CD-his): no binding (tested: 10 nM) | Top (CD73-ND-K180A): 1.74 | Top (CD73-ND-his): 1.98 | Top (CD73-ND-K182A): 2.03 | Top (CD73-ND-V144A): 1.69 | Top (CD73-ND-E143A): 1.77
